Source: publication PMC4132754 (Nucleic Acids Research, 2014)

Biological target: Flag-HA-SBP-SMG6 (human, UniProt Q86US8 1-1419)
Experiment: pull-down

Chain of Flag-HA-SBP-SMG6 (Q86US8 whole entry): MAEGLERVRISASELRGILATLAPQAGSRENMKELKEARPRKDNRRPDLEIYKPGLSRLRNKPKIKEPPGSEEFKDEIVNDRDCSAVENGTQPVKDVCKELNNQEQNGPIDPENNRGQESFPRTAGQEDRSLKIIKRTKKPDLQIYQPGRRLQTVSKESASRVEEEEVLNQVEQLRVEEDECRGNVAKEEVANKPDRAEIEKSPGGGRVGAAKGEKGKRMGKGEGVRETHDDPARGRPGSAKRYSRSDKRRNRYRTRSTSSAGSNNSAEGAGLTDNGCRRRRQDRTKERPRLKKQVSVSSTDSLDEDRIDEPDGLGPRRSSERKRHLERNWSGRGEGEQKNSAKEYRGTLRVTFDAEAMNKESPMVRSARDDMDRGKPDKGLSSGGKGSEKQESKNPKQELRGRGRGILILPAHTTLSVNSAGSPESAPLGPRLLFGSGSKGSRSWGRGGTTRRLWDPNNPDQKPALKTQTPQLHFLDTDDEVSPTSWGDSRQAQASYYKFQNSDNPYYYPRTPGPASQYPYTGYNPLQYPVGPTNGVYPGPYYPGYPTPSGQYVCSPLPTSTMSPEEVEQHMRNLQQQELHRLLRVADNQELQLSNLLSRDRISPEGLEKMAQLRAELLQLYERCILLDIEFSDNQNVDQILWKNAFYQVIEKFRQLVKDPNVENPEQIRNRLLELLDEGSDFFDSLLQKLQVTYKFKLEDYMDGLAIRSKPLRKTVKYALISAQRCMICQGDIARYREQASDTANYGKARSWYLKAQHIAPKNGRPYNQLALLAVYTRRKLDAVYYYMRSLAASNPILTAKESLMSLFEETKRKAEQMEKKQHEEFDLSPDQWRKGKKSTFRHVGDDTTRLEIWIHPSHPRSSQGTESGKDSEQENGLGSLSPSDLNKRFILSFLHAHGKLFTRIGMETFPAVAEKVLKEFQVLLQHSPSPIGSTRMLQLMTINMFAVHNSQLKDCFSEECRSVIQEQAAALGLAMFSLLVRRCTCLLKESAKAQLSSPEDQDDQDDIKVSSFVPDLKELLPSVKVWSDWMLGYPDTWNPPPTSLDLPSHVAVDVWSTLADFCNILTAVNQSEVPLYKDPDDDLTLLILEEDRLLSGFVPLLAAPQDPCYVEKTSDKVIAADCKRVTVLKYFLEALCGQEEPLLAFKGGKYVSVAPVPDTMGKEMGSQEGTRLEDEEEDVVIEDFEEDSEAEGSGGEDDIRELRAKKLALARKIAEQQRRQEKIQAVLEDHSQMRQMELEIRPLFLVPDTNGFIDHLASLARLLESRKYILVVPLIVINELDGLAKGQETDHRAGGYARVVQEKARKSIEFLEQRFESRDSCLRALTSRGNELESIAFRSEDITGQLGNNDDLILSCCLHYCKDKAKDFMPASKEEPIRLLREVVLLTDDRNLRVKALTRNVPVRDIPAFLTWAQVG

| Binder | binding result |
| --- | --- |
| SBP-UPF1 WT (natural protein) MSVEAYGPSSQTLTFLDTEEAELLGADTQGSEFEFTDFTLPSQTQTPPGGPGGPGGGGAGGPGGAGAGAAAGQLDAQVGPEGILQNGAVDDSVAKTSQLLAELNFEEDEEDTYYTKDLPIHACSYCGIHDPACVVYCNTSKKWFCNGRGNTSGSHIVNHLVRAKCKEVTLHKDGPLGETVLECYNCGCRNVFLLGFIPAKADSVVVLLCRQPCASQSSLKDINWDSSQWQPLIQDRCFLSWLVKIPSEQEQLRARQITAQQINKLEELWKENPSATLEDLEKPGVDEEPQHVLLRYEDAYQYQNIFGPLVKLEADYDKKLKESQTQDNITVRWDLGLNKKRIAYFTLPKTDSDMRLMQGDEICLRYKGDLAPLWKGIGHVIKVPDNYGDEIAIELRSSVGAPVEVTHNFQVDFVWKSTSFDRMQSALKTFAVDETSVSGYIYHKLLGHEVEDVIIKCQLPKRFTAQGLPDLNHSQVYAVKTVLQRPLSLIQGPPGTGKTVTSATIVYHLARQGNGPVLVCAPSNIAVDQLTEKIHQTGLKVVRLCAKSREAIDSPVSFLALHNQIRNMDSMPELQKLQQLKDETGELSSADEKRYRALKRTAERELLMNADVICCTCVGAGDPRLAKMQFRSILIDESTQATEPECMVPVVLGAKQLILVGDHCQLGPVVMCKKAAKAGLSQSLFERLVVLGIRPIRLQVQYRMHPALSAFPSNIFYEGSLQNGVTAADRVKKGFDFQWPQPDKPMFFYVTQGQEEIASSGTSYLNRTEAANVEKITTKLLKAGAKPDQIGIITPYEGQRSYLVQYMQFSGSLHTKLYQEVEIASVDAFQGREKDFIILSCVRANEHQGIGFLNDPRRLNVALTRARYGVIIVGNPKALSKQPLWNHLLNYYKEQKVLVEGPLNNLRESLMQFSKPRKLVNTINPGARFMTTAMYDAREAIIPGSVYDRSSQGRPSSMYFQTHDQIGMISAGPSHVAAMNIPIPFNLVMPPMPPPGYFGQANGPAAGRGTPKGKTGRGGRQKNRFGLPGPSQTNLPNSQASQDVASQPFSQGALTQGYISMSQPSQMSQPGLSQPELSQDSYLGDEFKSQIDVALSQDSTYQGERAYQHGGVTGLSQY | binds |
| SBP-UPF1 Δ1C (natural protein) MSVEAYGPSSQTLTFLDTEEAELLGADTQGSEFEFTDFTLPSQTQTPPGGPGGPGGGGAGGPGGAGAGAAAGQLDAQVGPEGILQNGAVDDSVAKTSQLLAELNFEEDEEDTYYTKDLPIHACSYCGIHDPACVVYCNTSKKWFCNGRGNTSGSHIVNHLVRAKCKEVTLHKDGPLGETVLECYNCGCRNVFLLGFIPAKADSVVVLLCRQPCASQSSLKDINWDSSQWQPLIQDRCFLSWLVKIPSEQEQLRARQITAQQINKLEELWKENPSATLEDLEKPGVDEEPQHVLLRYEDAYQYQNIFGPLVKLEADYDKKLKESQTQDNITVRWDLGLNKKRIAYFTLPKTDSDMRLMQGDEICLRYKGDLAPLWKGIGHVIKVPDNYGDEIAIELRSSVGAPVEVTHNFQVDFVWKSTSFDRMQSALKTFAVDETSVSGYIYHKLLGHEVEDVIIKCQLPKRFTAQGLPDLNHSQVYAVKTVLQRPLSLIQGPPGTGKTVTSATIVYHLARQGNGPVLVCAPSNIAVDQLTEKIHQTGLKVVRLCAKSREAIDSPVSFLANADVICCTCVGAGDPRLAKMQFRSILIDESTQATEPECMVPVVLGAKQLILVGDHCQLGPVVMCKKAAKAGLSQSLFERLVVLGIRPIRLQVQYRMHPALSAFPSNIFYEGSLQNGVTAADRVKKGFDFQWPQPDKPMFFYVTQGQEEIASSGTSYLNRTEAANVEKITTKLLKAGAKPDQIGIITPYEGQRSYLVQYMQFSGSLHTKLYQEVEIASVDAFQGREKDFIILSCVRANEHQGIGFLNDPRRLNVALTRARYGVIIVGNPKALSKQPLWNHLLNYYKEQKVLVEGPLNNLRESLMQFSKPRKLVNTINPGARFMTTAMYDAREAIIPGSVYDRSSQGRPSSMYFQTHDQIGMISAGPSHVAAMNIPIPFNLVMPPMPPPGYFGQANGPAAGRGTPKGKTGRGGRQKNRFGLPGPSQTNLPNSQASQDVASQPFSQGALTQGYISMSQPSQMSQPGLSQPELSQDSYLGDEFKSQIDVALSQDSTYQGERAYQHGGVTGLSQY | binds |
| SBP-UPF1 ΔStalkΔSQ1 (domain or fragment) MSVEAYGPSSQTLTFLDTEEAELLGADTQGSEFEFTDFTLPSQTQTPPGGPGGPGGGGAGGPGGAGAGAAAGQLDAQVGPEGILQNGAVDDSVAKTSQLLAELNFEEDEEDTYYTKDLPIHACSYCGIHDPACVVYCNTSKKWFCNGRGNTSGSHIVNHLVRAKCKEVTLHKDGPLGETVLECYNCGCRNVFLLGFIPAKADSVVVLLCRQPCASQSSLKDINWDSSQWQPLIQDRCFLSWLVKIPSEQEQLRARQITAQQINKLEELWKETSVSGYIYHKLLGHEVEDVIIKCQLPKRFTAQGLPDLNHSQVYAVKTVLQRPLSLIQGPPGTGKTVTSATIVYHLARQGNGPVLVCAPSNIAVDQLTEKIHQTGLKVVRLCAKSREAIDSPVSFLALHNQIRNMDSMPELQKLQQLKDETGELSSADEKRYRALKRTAERELLMNADVICCTCVGAGDPRLAKMQFRSILIDESTQATEPECMVPVVLGAKQLILVGDHCQLGPVVMCKKAAKAGLSQSLFERLVVLGIRPIRLQVQYRMHPALSAFPSNIFYEGSLQNGVTAADRVKKGFDFQWPQPDKPMFFYVTQGQEEIASSGTSYLNRTEAANVEKITTKLLKAGAKPDQIGIITPYEGQRSYLVQYMQFSGSLHTKLYQEVEIASVDAFQGREKDFIILSCVRANEHQGIGFLNDPRRLNVALTRARYGVIIVGNPKALSKQPLWNHLLNYYKEQKVLVEGPLNNLRESLMQFSKPRKLVNTINPGARFMTTAMYDAREAIIPGSVYDRSSQGRPSSMYFQTHDQIGMISAGPSHVAAMNIPIPFNLVMPPMPPPGYFGQANGPAAGRGTPKGKTGRGG | binds |
